Measurements as given in patent US6620914, “Transcription factor islet-brain 1 (IB1)” (Gerard).

Molecular target: T1, IB1 280-714 (Rattus, UniProt Q9R237 SEQ:280-714)
T1 sequence: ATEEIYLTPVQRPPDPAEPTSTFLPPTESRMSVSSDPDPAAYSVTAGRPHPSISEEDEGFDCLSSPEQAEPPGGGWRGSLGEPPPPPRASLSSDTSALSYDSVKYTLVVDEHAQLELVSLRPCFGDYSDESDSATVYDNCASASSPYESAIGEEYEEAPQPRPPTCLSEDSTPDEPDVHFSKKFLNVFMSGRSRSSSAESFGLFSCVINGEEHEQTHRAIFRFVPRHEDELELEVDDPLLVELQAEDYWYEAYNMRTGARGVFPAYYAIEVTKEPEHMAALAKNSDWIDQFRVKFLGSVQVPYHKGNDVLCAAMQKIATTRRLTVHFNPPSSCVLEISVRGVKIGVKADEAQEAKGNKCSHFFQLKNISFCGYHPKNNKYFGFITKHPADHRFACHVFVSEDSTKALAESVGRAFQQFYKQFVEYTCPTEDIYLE
Assay: SouthWestern
Conditions: tags: bacterially produced; label: 32P

B1: GTII (dsDNA)
DNA 1: GTAAAGGGTGTATTGATTGGATTACCATCAATACTCAGCTTCT
DNA 2: AGAAGCTGAGTATTGATGGTAATCCAATCAATACACCCTTTAC
B1: binds.
